Measured values reported in patent publication US20090053212A1 (Astellas, published 2009).
Residue numbers refer to the chain shown, from its start. Where no end group is shown, it is not given here.

Key:
BSA = target: T1, BSA (UniProt P02769 25-607); assay: ELISA, detection with HRP-labeled anti-E-Tag antibody
T1 construct: also called negative control BSA
Procedure: (§1) The peptide having the above-described sequence (hereinafter also referred to as the hOPN5 peptide) was reacted with BSA incorporating a maleimide group introduced using Sulfo-EMCS (Dojindo Laboratories) to prepare a hOPN5-BSA conjugate. The hOPN5-BSA conjugate was immobilized at 200 ng/100 μL/well on an ELISA plate (Nunc Company) at 4° C. overnight, and the plate was washed, after which blocking was performed with PBS supplemented with 1% BSA at 4° C. overnight. An antibody sample diluted with PBS supplemented with 1% BSA was added to the plate at 100 μL/well, and they were reacted at 37° C. for 1 hour. Detection was performed using a peroxidase (HRP)-labeled anti-human IgG (H+L) antibody (Wako Pure Chemical Industries, Ltd.). Absorbance at a wavelength of 450 nm was measured using a microplate reader (Molecular Devices Company).
(§2) The binding activity of the purified R2K1v1.7-scFv to the hOPN5 peptide was measured by an ELISA method. The method was generally the same as described above; in this measurement, HRP-labeled anti-E-Tag antibody was used as the labeled antibody.

[1] = target: T2, hOPN5-BSA conjugate (human osteopontin peptide CVDTYDGRGDSVVYGLRS coupled to BSA) (human, also: coupled to maleimide-activated BSA (Sulfo-EMCS), site not given here); assay: ELISA, HRP-labeled anti-E-Tag antibody detection
T2 construct: Immobilized on the ELISA plate at 200 ng/100 uL/well as a BSA conjugate; also called hOPN5 peptide
T2 peptide: CVDTYDGRGDSVVYGLRS
Procedure: as §1, §2

[2] = target: T2, hOPN5-BSA conjugate (human osteopontin …); assay: ELISA, hOPN5-BSA conjugate on the plate, HRP-labeled anti-human IgG (H+L) detection
Procedure: as §1

[3] = target: thrombin-cleaved human osteopontin (human), P10451; assay: cell-based or functional assay
biotinized hOPN5 peptide = target: T3, biotinized hOPN5 peptide (human, also: biotinylated, site not given here); assay: surface plasmon resonance (BIAcore), biotinized hOPN5 peptide on Sensor Chip SA, F(ab')2-PEG at 5 ug/mL
T3 peptide: CVDTYDGRGDSVVYGLRS
Procedure: The binding activity of the purified F(ab′)₂—PEG of R2K1v1.7 to the hOPN5 peptide was confirmed using surface plasmon resonance assay. The biotinized hOPN5 peptide was immobilized on Sensor Chip SA (BIAcore Company), and its binding activity was confirmed using the F(ab′)₂—PEG, previously diluted to 5 μg/mL with HBS-EP buffer (BIAcore Company); the results are shown in FIG. 16. From a rise in the signal, this F(ab′)₂—PEG was confirmed as having the same binding activity to the hOPN5 peptide as that of R2K1v1.7.

[4] = target: human OPN peptide (SVVYGLR sequence of human OPN) (human); assay: method not stated

T1 sequence (P02769 25-607 limits assumed): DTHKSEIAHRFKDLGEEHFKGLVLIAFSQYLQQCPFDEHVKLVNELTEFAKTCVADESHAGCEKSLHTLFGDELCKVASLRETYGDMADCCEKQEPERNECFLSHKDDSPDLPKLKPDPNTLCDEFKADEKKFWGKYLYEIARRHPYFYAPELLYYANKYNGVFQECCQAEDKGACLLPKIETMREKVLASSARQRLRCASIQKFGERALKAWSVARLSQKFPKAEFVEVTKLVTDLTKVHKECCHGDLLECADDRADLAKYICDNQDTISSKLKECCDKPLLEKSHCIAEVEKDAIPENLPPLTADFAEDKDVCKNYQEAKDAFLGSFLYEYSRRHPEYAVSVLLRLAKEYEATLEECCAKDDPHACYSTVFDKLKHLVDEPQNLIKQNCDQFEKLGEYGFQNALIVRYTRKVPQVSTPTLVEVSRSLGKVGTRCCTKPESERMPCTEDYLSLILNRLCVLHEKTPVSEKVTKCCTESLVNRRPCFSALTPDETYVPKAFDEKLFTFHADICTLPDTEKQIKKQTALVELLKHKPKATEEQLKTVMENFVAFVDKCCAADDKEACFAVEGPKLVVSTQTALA
Sequence of thrombin-cleaved human osteopontin (human), P10451 (P10451 17-314): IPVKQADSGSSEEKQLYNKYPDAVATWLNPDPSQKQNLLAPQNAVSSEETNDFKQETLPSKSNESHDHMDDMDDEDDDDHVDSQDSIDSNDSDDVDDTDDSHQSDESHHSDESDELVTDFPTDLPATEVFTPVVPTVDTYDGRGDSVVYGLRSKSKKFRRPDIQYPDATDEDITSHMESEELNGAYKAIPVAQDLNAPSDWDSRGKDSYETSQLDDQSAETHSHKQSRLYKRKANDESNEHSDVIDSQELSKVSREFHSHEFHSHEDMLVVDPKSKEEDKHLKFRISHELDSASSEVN

B1: R2K1v1.7-scFv (scFv)
scFv: QVQLQQSGAEVKKPGASVKVSCKALGYTFTDYEMHWVKQTPVHGLEWIGAIHPGRGGTAYNQKFKGKATLTADKSTSTAYMELSSLTSEDTAVYYCTRITGYFDVWGQGTTVTVSSGGGGSGGGGSGGGGSDVVMTQSPLSLSVTLGQPASISCRSSQSIVHSNGNTYLEWYLQKPGQSPQLLIYKVSNRFSGVPDRFSGSGSGTDFTLKISRVEAEDVGVYYCFQGSHVPLTFGQGTKLEIKR
notes: Structure VH1.7-linker-VL1.7, expressed in E. coli HB2151 periplasm, nearly all monomeric by gel filtration; also called scFv of R2K1v1.7; purified R2K1v1.7-scFv; not shown: C-terminal E-Tag from the pCANTAB5E vector, and any joining residues from the NotI site
BSA
  binding result: no binding
[1]
  binding result: binds

B2: R2K1v1.8 antibody (antibody, V domains shown)
VH: QVQLVQSGAELVRPGSSVKVSCKASGYTFTDYEMHWVKQTPVHGLEWIGAIHPGRGGTAYNQKFKGKATLTADKSTSTAYMELSSLTSEDTAVYYCTRITGYFDVWGQGTTVTVSS
VL: DVVMTQSPLSLPVTLGQPASISCRSSQSIVHSNGNTYLEWYLQKPGQSPQLLIYKVSNRFSGVPDRFSGSGSGTDFTLKISRVEAEDVGVYYCFQGSHVPLTFGQGTKLEIKR
notes: Only entries with a leader are tied to VH1.8 and VL1.8; also called humanized 2K1 antibody; R2K1 antibody
[2]
  binding result: binds
[3]
  Mean cell count (migration of TNF-alpha-activated human peripheral blood monocytes, 48-well microchemotaxis chamber; antibody 50 ug/mL): 688 cells/mm^3

B3: polyethylene glycol modified F(ab')2 of the R2K1v1.7 antibody (other, not shown: small tags and cut ends)
heavy: B2 VH with V5Q, L11V, V12K, R13K, S16A, S25L
light: DVVMTQSPLSLSVTLGQPASISCRSSQSIVHSNGNTYLEWYLQKPGQSPQLLIYKVSNRFSGVPDRFSGSGSGTDFTLKISRVEAEDVGVYYCFQGSHVPLTFGQGTKLEIKRTVAAPSVFIFPPSDEQLKSGTASVVCLLNNFYPREAKVQWKVDNALQSGNSQESVTEQDSKDSTYSLSSTLTLSKADYEKHKVYACEVTHQGLSSPVTKSFNRGEC
modifications: maleimidated polyethylene glycol SUNBRIGHT ME-120MA coupled to thiol groups activated by DTT reduction
notes: Made by pepsin digestion of R2K1v1.7, reduction of F(ab')2 to Fab' with DTT and coupling with maleimide-PEG; also called F(ab')2-PEG; F(ab')2-PEG of R2K1v1.7
Biotinized hOPN5 peptide
  binding result: binds

B4: R2K1v1.7 antibody (antibody, human IgG1, kappa, V domains shown)
VH: B2 VH with V5Q, L11V, V12K, R13K, S16A, S25L
VL: B2 VL with P12S
[4]
  fold binding affinity against the corresponding monkey OPN peptide: > 100 times
